Target: T1, human FcRn (human, UniProt P55899 24-297; P61769 21-119)
T1 construct: also called hFcRn
Assay: SPR, hFcRn as ligand
Description: Surface Plasmon Resonance (SPR) protein binding assay was used to measure FcRn binding.

T1 sequence (P55899 24-297 limits assumed, chain 1 of 2): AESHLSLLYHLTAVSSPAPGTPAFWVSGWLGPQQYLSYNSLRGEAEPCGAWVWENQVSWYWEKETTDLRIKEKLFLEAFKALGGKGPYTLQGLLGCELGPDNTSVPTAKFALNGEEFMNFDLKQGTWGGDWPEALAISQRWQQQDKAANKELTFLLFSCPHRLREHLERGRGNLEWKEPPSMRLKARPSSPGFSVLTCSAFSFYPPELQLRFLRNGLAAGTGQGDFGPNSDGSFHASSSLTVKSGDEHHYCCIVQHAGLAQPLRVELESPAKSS
T1 sequence (P61769 21-119 limits assumed, chain 2 of 2): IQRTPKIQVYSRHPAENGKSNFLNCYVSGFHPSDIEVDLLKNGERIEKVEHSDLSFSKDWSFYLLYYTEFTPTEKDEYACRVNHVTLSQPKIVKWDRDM

B1: UCM75 (Fc fusion)
chain 1: DKTHTCPPCPAPELLGGPSVFLFPPKPKDTLMISRTPEVTCVVVDVSHEDPEVKFNWYVDGVEVHNAKTKPREEQYASTYRVVSVLTVLHQDWLNGKEYKCKVSNKALPAPIEKTISKAKGQPREPQVYTLPPCRDELTKNQVSLWCLVKGFYPSDIAVEWESNGQPENNYKTTPPVLDSDGSFFLYSKLTVDKSRWQQGNVFSCSVMHEALHNRFTQKSLSLSPGGSPG
chain 2: DKTHTCPPCPAPELLGGPSVFLFPPKPKDTLMISRTPEVTCVVVDVSHEDPEVKFNWYVDGVEVHNAKTKPREEQYASTYRVVSVLTVLHQDWLNGKEYKCKVSNKALPAPIEKTISKAKGQPREPQVCTLPPSRDELTKNQVSLSCAVKGFYPSDIAVEWESNGQPENNYKTTPPVLDSDGSFFLVSKLTVDKSRWQQGNVFSCSVMHEALHNHYTVPLSLYSGG
  Kd: 1490 nM

B2: UCM80 (Fc fusion)
chain 1: DKTHTCPPCPAPELLGGPSVFLFPPKPKDTLMISRTPEVTCVVVDVSHEDPEVKFNWYVDGVEVHNAKTKPREEQYASTYRVVSVLTVLHQDWLNGKEYKCKVSNKALPAPIEKTISKAKGQPREPQVYTLPPCRDELTKNQVSLWCLVKGFYPSDIAVEWESNGQPENNYKTTPPVLDSDGSFFLYSKLTVDKSRWQQGNVFSCSVMHEALHNRFTQKSLSLSPGGSPG
chain 2: DKTHTCPPCPAPELLGGPSVFLFPPKPKDTLMISRTPEVTCVVVDVSHEDPEVKFNWYVDGVEVHNAKTKPREEQYASTYRVVSVLTVLHQDWLNGKEYKCKVSNKALPAPIEKTISKAKGQPREPQVCTLPPSRDELTKNQVSLSCAVKGFYPSDIAVEWESNGQPENNYKTTPPVLDSDGSFFLVSKLTVDKSRWQQGNVFSCSVMHEALHNHYTQPVSLRSGS
  Kd: 565 nM

B3: UCM79 (Fc fusion)
chain 1: DKTHTCPPCPAPELLGGPSVFLFPPKPKDTLMISRTPEVTCVVVDVSHEDPEVKFNWYVDGVEVHNAKTKPREEQYASTYRVVSVLTVLHQDWLNGKEYKCKVSNKALPAPIEKTISKAKGQPREPQVYTLPPCRDELTKNQVSLWCLVKGFYPSDIAVEWESNGQPENNYKTTPPVLDSDGSFFLYSKLTVDKSRWQQGNVFSCSVMHEALHNRFTQKSLSLSPGGSPG
chain 2: DKTHTCPPCPAPELLGGPSVFLFPPKPKDTLMISRTPEVTCVVVDVSHEDPEVKFNWYVDGVEVHNAKTKPREEQYASTYRVVSVLTVLHQDWLNGKEYKCKVSNKALPAPIEKTISKAKGQPREPQVCTLPPSRDELTKNQVSLSCAVKGFYPSDIAVEWESNGQPENNYKTTPPVLDSDGSFFLVSKLTVDKSRWQQGNVFSCSVMHEALHNHYTAPAGLIVPYN
  Kd: 1310 nM

B4: UCM77 (Fc fusion)
chain 1: DKTHTCPPCPAPELLGGPSVFLFPPKPKDTLMISRTPEVTCVVVDVSHEDPEVKFNWYVDGVEVHNAKTKPREEQYASTYRVVSVLTVLHQDWLNGKEYKCKVSNKALPAPIEKTISKAKGQPREPQVYTLPPCRDELTKNQVSLWCLVKGFYPSDIAVEWESNGQPENNYKTTPPVLDSDGSFFLYSKLTVDKSRWQQGNVFSCSVMHEALHNRFTQKSLSLSPGGSPGAPTSSSTKKTQLQLEHLLLDLQMILNGINNYKNPKLTAMLTAKFAMPKKATELKHLQCLEEALKPLEEVLNLAQSKNFHLRPRDLISNINVIVLELKGSETTFMCEYADETATIVEFLNRWITFAQSIISTLT
chain 2: DKTHTCPPCPAPELLGGPSVFLFPPKPKDTLMISRTPEVTCVVVDVSHEDPEVKFNWYVDGVEVHNAKTKPREEQYASTYRVVSVLTVLHQDWLNGKEYKCKVSNKALPAPIEKTISKAKGQPREPQVCTLPPSRDELTKNQVSLSCAVKGFYPSDIAVEWESNGQPENNYKTTPPVLDSDGSFFLVSKLTVDKSRWQQGNVFSCSVMHEALHNHYTRAAAVKSPG
  Kd: 312 nM

B5: UCM78 (Fc fusion)
chain 1: DKTHTCPPCPAPELLGGPSVFLFPPKPKDTLMISRTPEVTCVVVDVSHEDPEVKFNWYVDGVEVHNAKTKPREEQYASTYRVVSVLTVLHQDWLNGKEYKCKVSNKALPAPIEKTISKAKGQPREPQVYTLPPCRDELTKNQVSLWCLVKGFYPSDIAVEWESNGQPENNYKTTPPVLDSDGSFFLYSKLTVDKSRWQQGNVFSCSVMHEALHNRFTQKSLSLSPGGSPG
chain 2: DKTHTCPPCPAPELLGGPSVFLFPPKPKDTLMISRTPEVTCVVVDVSHEDPEVKFNWYVDGVEVHNAKTKPREEQYASTYRVVSVLTVLHQDWLNGKEYKCKVSNKALPAPIEKTISKAKGQPREPQVCTLPPSRDELTKNQVSLSCAVKGFYPSDIAVEWESNGQPENNYKTTPPVLDSDGSFFLVSKLTVDKSRWQQGNVFSCSVMHEALHNHYTQRPLALWRS
  Kd: 181 nM

B6: UCM81 (Fc fusion)
chain 1: DKTHTCPPCPAPELLGGPSVFLFPPKPKDTLMISRTPEVTCVVVDVSHEDPEVKFNWYVDGVEVHNAKTKPREEQYASTYRVVSVLTVLHQDWLNGKEYKCKVSNKALPAPIEKTISKAKGQPREPQVYTLPPCRDELTKNQVSLWCLVKGFYPSDIAVEWESNGQPENNYKTTPPVLDSDGSFFLYSKLTVDKSRWQQGNVFSCSVMHEALHNRFTQKSLSLSPGGSPG
chain 2: DKTHTCPPCPAPELLGGPSVFLFPPKPKDTLMISRTPEVTCVVVDVSHEDPEVKFNWYVDGVEVHNAKTKPREEQYASTYRVVSVLTVLHQDWLNGKEYKCKVSNKALPAPIEKTISKAKGQPREPQVCTLPPSRDELTKNQVSLSCAVKGFYPSDIAVEWESNGQPENNYKTTPPVLDSDGSFFLVSKLTVDKSRWQQGNVFSCSVMHEALHNHYTPANLVAPDP
  Kd: 1100 nM

B7: UCM76 (Fc fusion)
chain 1: DKTHTCPPCPAPELLGGPSVFLFPPKPKDTLMISRTPEVTCVVVDVSHEDPEVKFNWYVDGVEVHNAKTKPREEQYASTYRVVSVLTVLHQDWLNGKEYKCKVSNKALPAPIEKTISKAKGQPREPQVYTLPPCRDELTKNQVSLWCLVKGFYPSDIAVEWESNGQPENNYKTTPPVLDSDGSFFLYSKLTVDKSRWQQGNVFSCSVMHEALHNRFTQKSLSLSPGGSPGAPTSSSTKKTQLQLEHLLLDLQMILNGINNYKNPKLTAMLTAKFAMPKKATELKHLQCLEEALKPLEEVLNLAQSKNFHLRPRDLISNINVIVLELKGSETTFMCEYADETATIVEFLNRWITFAQSIISTLT
chain 2: DKTHTCPPCPAPELLGGPSVFLFPPKPKDTLMISRTPEVTCVVVDVSHEDPEVKFNWYVDGVEVHNAKTKPREEQYASTYRVVSVLTVLHQDWLNGKEYKCKVSNKALPAPIEKTISKAKGQPREPQVCTLPPSRDELTKNQVSLSCAVKGFYPSDIAVEWESNGQPENNYKTTPPVLDSDGSFFLVSKLTVDKSRWQQGNVFSCSVMHEALHNHYTQMPYDLYHPNFMLTQPHSVSESPGKTVTISCTRSSGSIASNYVQWYQQRPGSSPTTVIYEDNQRPSGVPDRFSGSIDSSSNSASLTISGLKTEDEADYYCQTYDSIDVYFGGGTKLTVLGGGGGSGGGGSGGGGSGGGGSQLQLQESGPGLVKPSQTLSLTCTVSGGSISSGGYYWSWIRQHPGKGLEWIGYIYKSGSAYYSPSLKSRVTISVDTSKNQFSLKLSSVTAADTAVYYCARTPTVTGDWFDPWGRGTLVTVSS
  Kd: 551 nM

Reference: patent US20240141007A1 (XILIO DEVELOPMENT, published 2024)
